# Measured values as given in US11220682B2 (SOGANG UNIVERSITY RESEARCH & BUSINESS DEVELOPMENT FOUNDATION, priority 2017, dated 2022).
# Positions count from the first letter of the chain named.
# B1: DOPA-RS2 (protein)
# chain: MDEFEMIKRNTSEIISEEELREVLEKDEKSALIGFEPSGKIHLGHYLQIKKMIDLQNAGFDIIILLSDLNAYLNQKGELDEIRKIGDYNKKVFEAMGLKAKYVYGSEFQLDKDYTLNVYRLALKTTLKRARRSMELIAREDENPKVAEVIYPIMQVNDIHYLGVDVLVGGMEQRKIHMLARELLPKKVVCIHNPVLTGLDGEGKMSSSKGNFIAVDDSPEEIRAKIKKAYCPAGVVEGNPIMEIAKYFLEYPLTIKRPEKFGGDLTVNSYEELESLFKNKELHPMDLKNAVAEELIKILEPIRKRL
# modifications: Artificial DOPA_RS-2 Sequence
# B2: DOPA-RS1 (protein)
# chain: B1 chain with L167N
# modifications: Artificial DOPA_RS-1 Sequence
# How the values were obtained:
# Format in all cases: cell-based, E. coli
# bacterial cell growth = experiment: Bacterial cell growth / cell density in growth medium
# Description: The starter culture (2 mL) was transferred to a limiting medium (100 mL) (50 mM Na2HPO4, 50 mM KH2PO4, 50 mM (NH4)2504, 2 mM MgSO4, 0.1% trace metals, 0.5% glycerol, 0.05% glucose, and 5% amino acids, and pH 7.25) supplemented with ampicillin (100 μg/mL), chloramphenicol (35 μg/mL), 100 μM pyruvate, 10 mM catechol, and 300 μM DTT at 30° C. Protein expression was induced by adding 0.2% L-arabinose when the optical density reached 0.8, and the culture was cultured overnight at 30° C.
# A simple solution was to maximize the concentrations of catechol, pyruvate, and ammonia in a growth medium. […] In the growth medium, 50 mM pyruvate and 25 mM ammonia were added as starting materials together with various concentrations (0 mM to 10 mM) catechol.
# [1] = system: emGFP containing an amber mutation (TAG) at position 39 or 90; experiment: emGFP fluorescence from cytolysate, efficiency of genetic incorporation of L-DOPA; settings: all L-DOPA concentrations (1 mM to 3 mM), positions 39 and 90 of emGFP
# Description: (§1) A wild-type emGFP gene was obtained from commercially available sources by gene synthesis, amplified by PCR, and inserted between the BspHI and KpnI sites of pBAD/Myc-His (Invitrogen) to generate pBAD-emGFP (SEQ ID NO: 10). An amber codon (TAG) was incorporated at position 39 or 90 in the emGFP by site-specific mutants. A plasmid containing each amber codon was incorporated into E. coli DH10 used as a prokaryote host cell with pEvol-DOPA-RS1 (SEQ ID NO: 6), pEvol-DOPA-RS2 (SEQ ID NO: 7), or pEvol-DOPA-RS (SEQ ID NO: 8) to co-transform the E. coli DH10 (Comparative Example 1: […], Example 1: DOPA-RS1, Example 2: DOPA-RS2). Cells were amplified in an LB medium (lysogeny broth) supplemented with ampicillin (100 μg/mL) and chloramphenicol (35 μg/mL). […] Protein concentrations were calculated by measuring absorbance at 280 nm and using the calculated extinction coefficient (2.2×10^4 cm^−1M^−1 for emGFP).
# Cells (2×10^9) were harvested by centrifugation at 10,000 rpm and 4° C. for 5 minutes, and cell pellets were lysed for 1 hour with Bugbuster (Novagen) (50 μL) supplemented with benzonase (Sigma) ([…]). The cytolysate was removed by centrifugation at 13,000 rpm and 4° C. for 10 minutes, and the supernatant was directly used for fluorescence measurement. Fluorescence was measured at 510 nm with excitation at 487 nm. […]
# emGFP-E90DOPA = experiment: MALDI-TOF MS analysis of tryptic digest of emGFP-E90DOPA, specificity of incorporation; settings: 3 mM L-DOPA, position 90
# Description: as §1, with “Protein expression was induced by adding 0.2% L-arabinose when the optical density reached 0.8, and the culture was cultured overnight at 37° C. […] Protein” for “Protein”, “emGFP). […]” for “emGFP).”
# In order to express an emGFP-E90DOPA mutant, the expressed protein was purified, followed by tryptic degradation and then evaluated by MALDI-TOF (matrix-assisted laser desorption/ionization-time of flight) MS analysis (FIG. 2). […]
molecule,measurement,setting,value
Oc1ccccc1O [catechol],toxicity,bacterial cell growth; 10 mM catechol,a reasonable toxicity was observed
same,concentration that inhibited bacterial cell growth,"bacterial cell growth; preliminary test, growth medium",more than 8 mM
B1,"efficiency in incorporation of L-DOPA (emGFP expression), rank order",[1],DOPA-RS2>DOPA-RS1>DOPA-RS
same,incorporation of tyrosine,emGFP-E90DOPA,not detected
B2,"efficiency in incorporation of L-DOPA (emGFP expression), rank order",[1],DOPA-RS2>DOPA-RS1>DOPA-RS
same,incorporation of tyrosine,emGFP-E90DOPA,not detected
